Test results from patent publication US20220064286A1 (Genentech, published 2022).

T1: hTIGIT mutant L73A (human, UniProt Q495A1)
T1 sequence (TIGIT, looked up): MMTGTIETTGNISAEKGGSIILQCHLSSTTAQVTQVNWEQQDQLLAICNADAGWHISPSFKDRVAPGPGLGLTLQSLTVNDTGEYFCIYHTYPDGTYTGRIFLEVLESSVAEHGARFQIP

T2: hTIGIT mutant Y113A (human, UniProt Q495A1)
T2 sequence (TIGIT, looked up): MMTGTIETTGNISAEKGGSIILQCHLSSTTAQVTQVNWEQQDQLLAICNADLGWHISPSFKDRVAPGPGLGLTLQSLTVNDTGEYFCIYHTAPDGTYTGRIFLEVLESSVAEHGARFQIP

T3: hTIGIT mutant Q53A (human, UniProt Q495A1)
T3 sequence (TIGIT, looked up): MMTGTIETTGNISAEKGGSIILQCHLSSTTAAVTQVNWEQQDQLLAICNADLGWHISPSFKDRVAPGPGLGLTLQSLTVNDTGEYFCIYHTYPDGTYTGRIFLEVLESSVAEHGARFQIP

T4: human TIGIT protein (human, UniProt Q495A1 22-141, limits assumed)
T4 construct: Recombinant protein (Genentech) used in ELISA screening and as SPR analyte; also called TIGIT antigen
T4 sequence: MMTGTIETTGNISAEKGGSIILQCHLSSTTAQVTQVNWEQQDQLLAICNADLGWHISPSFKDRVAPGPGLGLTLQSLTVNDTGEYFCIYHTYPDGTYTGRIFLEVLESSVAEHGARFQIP

T5: human TIGIT on activated human primary T cells (human, UniProt Q495A1 22-244)
T5 construct: also called Human T cell
T5 sequence: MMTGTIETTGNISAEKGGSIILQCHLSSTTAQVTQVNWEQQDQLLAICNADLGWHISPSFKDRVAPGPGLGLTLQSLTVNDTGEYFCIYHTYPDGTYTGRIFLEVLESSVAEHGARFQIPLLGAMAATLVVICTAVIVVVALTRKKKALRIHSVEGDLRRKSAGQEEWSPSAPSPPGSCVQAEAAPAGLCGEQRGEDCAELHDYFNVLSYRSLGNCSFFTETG

T6: full-length human TIGIT on CHO cells (human, UniProt Q495A1 22-244)
T6 construct: also called CHO-hTIGIT; hu TIGIT
T6 sequence: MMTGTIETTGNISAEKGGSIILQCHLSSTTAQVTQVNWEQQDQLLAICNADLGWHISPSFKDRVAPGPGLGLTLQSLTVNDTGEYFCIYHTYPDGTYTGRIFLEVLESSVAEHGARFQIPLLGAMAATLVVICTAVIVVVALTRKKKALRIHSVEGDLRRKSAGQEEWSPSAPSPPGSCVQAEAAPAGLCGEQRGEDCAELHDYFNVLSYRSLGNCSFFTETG


Columns and labels:
[1] = molecular target: T1, hTIGIT mutant L73A; assay: SPR (BIACORE), N=2
[2] = molecular target: T2, hTIGIT mutant Y113A; assay: SPR (BIACORE), N=2
[3] = molecular target: T3, hTIGIT mutant Q53A; assay: SPR (BIACORE), N=2
[4] = molecular target: T1, hTIGIT mutant L73A; assay: SPR (BIACORE) KD normalized to WT, N=2
[5] = molecular target: T2, hTIGIT mutant Y113A; assay: SPR (BIACORE) KD normalized to WT, N=2
[6] = molecular target: T3, hTIGIT mutant Q53A; assay: SPR (BIACORE) KD normalized to WT, N=2
[7] = molecular target: T4, human TIGIT protein; assay: SPR, captured mAb
Excerpt: (§1) To prevent unwanted pyroglutamate formation for clones 4.1A4, 4.1 D3, and 7.4A3 (also referred to as 1A4, 1 D3, and 4A3, respectively) and to resolve the issue of unpaired cysteine residues for clones 4.1A4 and 7.4A3, the following optimized anti-TIGIT antibody variants were generated: 4.1A4.C96S.Q1E, 4.1A4.C96Y.Q1E, 4.1 D3.Q1E, 7.4A3.C96S.Q1E, and 7.4A3.C96Y.Q1E (also referred to as 1A4.C96S.Q1E, 1A4.C96Y.Q1E, 1 D3.Q1E, 4A3.C96S.Q1E, and 4A3.C96Y.Q1E, respectively). As described below in Table 2, the affinities of these five optimized variants for human and cynomolgus monkey (cyno) TIGIT were then determined by Surface Plasmon Resonance (SRP) (BIACORE™ analysis) and compared to that of their respective parental clones.
(§2) Briefly, a series S CM5 biosensor chip was activated with N-ethyl-N′-(3-dimethylaminopropyl)-carbodiimide hydrochloride (EDC) and N-hydroxysuccinimide (NHS) reagents according to the supplier's (GE Healthcare Biosciences, Piscataway, N.J.) instructions, and a human antibody capture kit was applied to couple goat anti-human Fc IgGs in order to achieve approximately 10,000 response units (RU) on each flow cell, followed by blocking un-reacted groups with 1M ethanolamine.
(§3) (flow rate: 30 μl/min) with no regeneration between injections. The sensorgrams were recorded and evaluated by BIAcore™ T200 Evaluation Software (version 2.0) after subtraction of reference cell signal. Association rates (kₒₙ) and dissociation rates (koff) were calculated using a simple one-to-one Langmuir binding model. The equilibrium dissociation constant (KD) was calculated as the ratio koff/kₒₙ.

[8] = molecular target: T7, cynomolgus monkey (cyno) TIGIT protein (cynomolgus monkey, UniProt A0A7N9I9V4 89-209); assay: SPR, captured mAb
Excerpt: as §1, §2, §3

[9] = molecular target: T4, human TIGIT protein; assay: SPR, monovalent affinity
[10] = molecular target: T7, cynomolgus monkey (cyno) TIGIT protein; assay: SPR, monovalent affinity
[11] = molecular target: T4, human TIGIT protein; assay: SPR (BIACORE), N=2
[12] = molecular target: T5, human TIGIT on activated human primary …; assay: FACS, activated human T cells
Experimental: The OMT- and SD-derived anti-TIGIT clones were also tested for binding to human primary T cells by FACS analysis. Human PBMC were activated for with plate-bound anti-CD3 (5 μg/ml) and soluble anti-CD28 (2 μg/ml) for 2 days as described in Yu et al. Nature Immunology. 10: 48-57, 2009, which is incorporated herein by reference in its entirety. Cells were then washed and incubated with incubated with each anti-TIGIT antibody at the indicated concentrations and then detected via a FITC-labeled anti-hIgG antibody. Cells were also stained with anti-CD4, anti-CD8, and anti-CD25 (BD bioscience). Human CD4+(CD25+CD4+) and human CD8+(CD25+CD8+) T cells were assessed for binding by the anti-TIGIT clones by FACS. All samples were acquired on LSR-II or LSR-Fortessa instruments (BD Biosciences) and analyzed using FlowJo software (Treestar).

[13] = molecular target: T6, full-length human TIGIT on CHO cells; assay: FACS, CHO cells expressing TIGIT
[14] = molecular target: T4, human TIGIT protein; assay: SPR (BIACORE) KD normalized to WT, N=2

T7 sequence (A0A7N9I9V4 entry or part of it): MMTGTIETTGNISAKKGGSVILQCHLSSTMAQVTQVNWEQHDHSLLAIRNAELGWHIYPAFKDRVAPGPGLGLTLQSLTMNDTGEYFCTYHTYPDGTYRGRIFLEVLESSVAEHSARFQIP

| Kd [1] [nM] | Kd [2] [nM] | Kd [3] [nM] | Binding affinity drop vs. WT [4] [fold] | Binding affinity drop vs. WT [5] [fold] | Binding affinity drop vs. WT [6] [fold] | Kd [7] [nM] | koff [7] [s⁻¹] | kon [7] [M⁻¹ s⁻¹] | Kd [8] [nM] | koff [8] [s⁻¹] | kon [8] [M⁻¹ s⁻¹] | Kd [9] [nM] | Kd [10] [nM] | Kd [11] [nM] | EC50 [12] [nM] | EC50 [13] [nM] | Binding affinity drop vs. WT [14] [fold] | Binder |
| --- | --- | --- | --- | --- | --- | --- | --- | --- | --- | --- | --- | --- | --- | --- | --- | --- | --- | --- |
| > 500 | 55.5 | 32 | > 11 | 1.2 | 0.7 | – | – | – | – | – | – | – | – | – | – | – | – | 10A7 (antibody, V domains shown) VH: EVQLVESGGGLTQPGKSLKLSCEASGFTFSSFTMHWVRQSPGKGLEWVAFIRSGSGIVFYADAVRGRFTISRDNAKNLLFLQMNDLKSEDTAMYYCARRPLGHNTFDSWGQGTLVTVSS VL: DIVMTQSPSSLAVSPGEKVTMTCKSSQSLYYSGVKENLLAWYQQKPGQSPKLLIYYASIRFTGVPDRFTGSGSGTDYTLTITSVQAEDMGQYFCQQGINNPLTFGDGTKLEIKR |
| – | – | – | – | – | – | 2.97 | 0.000856 | 288000 | 2.01 | 0.000556 | 276000 | 2.97 | 2.02 | 1.8 | 2.63 | 3.04 | 1 | 7.4A3.C96S.Q1E (antibody, V domains shown, also called 7.4A3.Q1E.C96S) VH: EVQLVQSGSDLKKPGASVRVSCKASGYTFTSYPMNWVRQAPGHGLEWMGWINTNTGNPTYVQGFTGRFVFSLDTSVNTAYLQISSLKAEDTAVYFCARTGGHTYDSYAFDVWGQGTMVTVSS VL: DIQLTQSPTFLSASVGDRVTITCRASQVISSSLAWYQQNPGKAPKLLIYAASTLQSGVPSRFSGSGSGTEFTLTISSLQPEDFVTYYCQHLHGYPSNFGQGTKVEIK |
| 1.3 | 2.8 | 0.8 | 2.6 | 5.6 | 1.6 | 0.43 | 0.00164 | 3.84e+06 | 3.33 | 0.00207 | 621000 | 0.61 | 3.4 | 0.5 | – | – | 1 | 4.1D3 (antibody, V domains shown, OMT rat-derived human antibody; also called 4.1D3.Q1) VH: QVQLQQSGPGLVKPSQTLSLTCAISGDSVSSNSAAWNWIRQSPSRGLEWLGKTYYRFKWYSDYAVSVKGRITINPDTSKNQFSLQLNSVTPEDTAVFYCTRESTTYDLLAGPFDYWGQGTLVTVSS VL: not shown |
| – | – | – | – | – | – | 0.56 | 0.00097 | 1.72e+06 | 3.22 | 0.00154 | 478000 | 0.57 | 3.2 | – | 1.36 | 1.04 | – | 4.1D3.Q1E (antibody, V domains shown) VH: EVQLQQSGPGLVKPSQTLSLTCAISGDSVSSNSAAWNWIRQSPSRGLEWLGKTYYRFKWYSDYAVSVKGRITINPDTSKNQFSLQLNSVTPEDTAVFYCTRESTTYDLLAGPFDYWGQGTLVTVSS VL: not shown |
